Data taken from a protein production outcome set (Wang et al. 2014).

Experiment: label from the status in PepcDB records

| Sequence | protein production |
| --- | --- |
| MPGIDKLPIEETLEDSPQTRSLLGVFEEDATAISNYMNQLYQAMHRIYDAQNELSAATHLTSKLLKEYEKQRFPLGGDDEVMSSTLQQFSKVIDELSSCHAVLSTQLADAMMFPITQFKERDLKEILTLKEVFQIASNDHDAAINRYSRLSKKRENDKVKYEVTEDVYTSRKKQHQTMMHYFCALNTLQYKKKIALLEPLLGYMQAQISFFKMGSENLNEQLEEFLANIGTSVQNVRREMDSDIETMQQTIEDLEVASDPLYVPDPDPTKFPVNRNLTRKAGYLNARNKTGLVSSTWDRQFYFTQGGNLMSQARGDVAGGLAMDIDNCSVMAVDCEDRRYCFQITSFDGKKSSILQAESKKDHEEWICTINNISKQIYLSENPEETAARVNQSALEAVTPSPSFQQRHESLRPAAGQSRPPTARTSSSGSLGSESTNLAALSLDSLVAPDTPIQFDIISPVCEDQPGQAKAFGQGGRRTNPFGESGGSTKSETEDSILHQLFIVRFLGSMEVKSDDHPDVVYETMRQILAARAIHNIFRMTESHLLVTCDCLKLIDPQTQVTRLTFPLPCVVLYATHQENKRLFGFVLRTSSGRSESNLSSVCYIFESNNEGEKICDSVGLAKQIALHAELDRRASEKQKEIERVKEKQQKELNKQKQIEKDLEEQSRLIAASSRPNQASSEGQFVVLSSSQSEESDLGEGGKKRESEA | failed |
| MPGKKQEVQEELLEEQLEKAYQGRINNIKESFAGVLSVLKTANTKKLERITARSHNYLGLLHMIQGNHIKSITHSRQALEYFQRVQSLKDIADAKFNIASSLYKTDNFHDGLKGLLECRQIYKSIGEGRSECRSLKSIATIYEYWSDVNKAFLIYQECIDLATRHGDLAMLSNVYNPMSGLYLKRGDIETATKLSDKSIAIKKKIKDERGLAYSIYGKGKVFFAQQKFAQAETYFLQSLELQQKFGDKLGAGMVLNKLGLTYVEQKKYLQAEKILKQAVSLAEKHNVKVNVYKSYYSLYTLYKLQHKESNALQCLEQFVLHKENNVQSHTSDIIRSYEAANEIYRLEKDTKAQIDYLEIVQKKNTELDSFFYRVSHDLKGPISSLLGLNELIEKEQFDGEALKYFNMYKKLSTRIDAIVMDLITITRISSDKIVPVKIDFMQLIEDCIHSYAYFDNFEHIQFNIEVEEGISFQSEWVIVNTILQNLIENSIKYMRHDVKKPYVFIQVYTQGQMLCIKVTDNGQGISEEYQEKIYEMFFRANDKADGSGLGLYILKRAVERLQGTVSLKSKPGKGAAFTVCIKGE | failed |
| MPGKREMQKCSLITVLSLSVLMLAGCTTTYTMTTRTGEIIETQGKPEVDTATGMTKYADVYGYHRVMKTSEIVQTTEGASKLDWLEHHHHHH | not failed |
| MPGTGLPIRGRRDPETIETRCLNNDQDSRLALIHAWLQTLPGSLGLRPETMEPASSDASFRRYFRLQAAAGTLIVMDAPPPHEDVRPFVHIDGLLREAGVNVPEIVAQDAGQGLLLLSDLGQDTFYQRIRAGISDAQLQSMYRDTLATLVRLQQASTAGLPAYDGARLAAELELFPEWYVGRHHGVTLDDKTAAALRQIFGLLAAEGDTGHRVLVHRDFHSPNLMVCDEPRYGPNPGVIDFQDALAGPLTYDLASLVTDARTTWEEPQQLDWAIRYWELARAAGLPVDADFAQFHRAYEWTGLQRNLRILGVFARLNHRDGKSIYLSHMPRVSGYVRQVAQRYGAFAPLLRLLDKLDDRQVQVGYTF | failed |
| MPGTNNEATRKEEVKKIVENRRRKAELIREQQIKKRNTIIAIGVGILVVLILVMVLAKSCSSGKKPAKTSATTAKQITTVAQTTVQETTTAEEYMYTTDVLNLRKSASAKSKLITQIGAGKKVQVISENGKWCQIKYGKDTGYVMKKYLSYSNMLD | failed |
| MPGVTVKDIDQHAVTKAVAVFLKKTGKLKVPDQMDIVKTAKFKELAPYDPDWFYVRCASILRHLYHRSPAGVGSITKIYGGRKRNGVHPSHFCRAADGAARKALQALEHARLVEKHPDGGRKLSSIGQRDLDRIANQIVFKQRDAAKQTGPIVISK | failed |
| MPHAARSDAAALRAPAADDGAYGKPAIALHWIIALLIFAAFGLGLYMTDIPGFTPTKLKLYSYHKWAGITVLILAVLRVLWRLTHPAPAPVAGMPAWQQKAAEGAHIVLYLLILAVPLTGYLLSVAAGIKVVYLGLWELPMPFDKSDALKEIFQVAHEWLNWTMATIVVLHILAALKHHIVDSDGTLRRMLPFLR | failed |
| MPHAVQGQPENAVHPPQGTAWPGLEPPEGFLMANPRLSRRHVRRMRSERPPPTTRPPDWRFPMKSTLNLLLTVSLALSGAGLAQTAPNVPTQAAPTTAAPANAAQLAAEARDLTNRARTTYPAGSASIDQPLWKQAADRAEAAVSAAPNNPDVLRLRAQIYTEVGFWKQAESSWRAYFAVAPVAAGQNEARAAGNVQYNLGYAAYTRGQSAQAAAYFKACLTLDPQSVPCATWAARTALESGDYALAQNLYTQALSLAPTDKTLNYFAQVARNASTYGPAATQAFSRAYASLDAGRRAEALAGFQEAARSAPNFPEAQREAGRLALEAGDTGAALSAYQALAALPGATDSDRYNLGLAQEGQQYGLRAVQTFRTAYGKYSAGDKAGAEAGFLQATTASANYGKAWAWLGRVRYEAKNYAGAAEAYGRAVALDPGDKTSAYFLKLAQQGK | failed |
| MPHKLLPWLAIASAMSAFTLQAQPMPDTELLMGSYTQGKSEGIYRFGFNSQTGLIDAKPLQVIKSDNPSWLTLSKDQRHLFAVNENGPGQKDVVGKVSSFAIDPKTRQITPINQVQSRGEEPTHSSLSYDGRYLFVANYAVNPDPGGALTVVPVGKDGTLSEAVQVLPLGPGSKVNSERQLSSHVHLAVPTPDNKYVVSADLGADKLFVYRYDANQAKPLQPAKVPTVQLPGGSGPRHTLFSADGKHAWLVLEMTAQVAVFDYHDGGFKQTQLVDMKNKGVEEKNGGGALHTSPDGKFLYVTNRGDANQVVVFRIDQASGKLEEIQRRSLEGKEPREFAFDPTGKFMLFANQKSNQIVTVRRDPQSGMIGDTVQKFDADSPSYLRFLTEK | failed |
| MPHPFVYHDCPMSRLLFRYICTETAVPFALGLTVFTFVLLMGRLLKLAEMVFARGVPFLDVTRLILYMLPSFFLVAIPMAFLLAVLLAMGRLSADSEVTAMKASGMSIGTIAVPVIAFGVITYAATTFVSVYALPWGNTAFKKFLHGVIETRAAMSITEKVFNDEFPGLVIYVDGFDPKSGRISGILIHDERNPDEPSTIFAASGQLATNPEERIVRLRLNNGGIHRGIGTGGYRLVEFTSYDLSIALQREQQKARLNEEDMTLGELLARMKSPGEQPKLVREMHFELHKRFALPFACVVFAVIAVPLGIQNQRSGRAGGFAAGIILLMLYYILMSAGKTVNEKGIAPAFVAVWIPNVLFLGLGIFLLKRAALDRAIPLAEYVTTALAWVRHRFERRKT | failed |
| MPHSTTEPRRDMPDALISIVIPCRNEAANLPLLIDEIEAAMAGRHFELIIVNDGSTDETAAVLTEQAALRSFPVRELRHQKSAGQSLSVRSGAWAARGGIVATIDGDGQNDPQYIPVLVDALRQAGPDFGAAQGQRLKRRDSKVKQLASRFANWLRNAILHDETRDTGCGLKAVHTEILRKLPFFDGTHRFVPALVIQEGYRVVHCDVVDRSRRHGKSNYGIFDRGLQGALDLGGVWWLRRRRRRMPKVEEIKRV | failed |
| MPIAGIPYTEIVMAIVAFVLGFLVGYLIKNVIKIGIIVLAIIVILIAIGVVSPHTVVSGLQSMGVYATQAEQYVSRIINYLPYNSILFIIGFVIGLVKG | failed |
| MPIRDDISWPPSAVCSVSLILHLPGRFGHVSVAHLLLDHGADVNAQNRLGASVLTVASRGGHLGVVKLLLEAGAFVDHHHPSGEQLGLGGSRDEPLDITALMAAIQHGHEAVVRLLMEWGADPNHAARTVGWSPLMLAALTGRLGVAQQLVEKGANPDHLSVLEKTAFEVALDCKHRDLVDYLDPLTTVRPKTGQAACPPWLHRGPQIVFMWLKLRIALLEGHAELRVQPCRPLRLRKWCA | not failed |
| MPKIRIRKFWPSGAGTVPGVLLIALALGCVGHRAKFADETFSSDEAEIRSAVEPLPPKAQLVYLVLAGELAGQRGRYEVALEHYLQAARLSRDGRLAERAMQIALFIKKYPEAVESVALWLKAEPRHAGARRMATLLYLKEGRRDEAVTQMKVLLTLPDADLENTLIELVKVLGNEVPRQDATEFMDALLRAFPAMADLHFAAALLAANQGEFQQALSETEEALKLHPDWGRARVLQAQVMAQMGDSATAGDLIQRALKRDPDNARLRLIYSQFLIKSGDIEGARRELERIVAKEPGNQDARFGLGLALIDLGRLDAARREFAALAASEKWRVQAYFYLGLIDARKGRLNEALDWFDRVTTGPTEFDARVNGITVLISLGRLTEARTRLADIRRRFPNESVRLYLLEAELLSKNRDYEDAFNLLTDALGENPGQSDLLYARALVAENLGRFDVLEADLRQVLEKSPDDPNALNALGYTLVERGERLDEAKGYLDRAIRLKPDDPAILDSYGWLLYRLRKYAEAIEYLRRAYDKVQDPEIASHLGEVLMESGRRQEARKILREAWKKAPEHEDMQRIRARYPELLAP | failed |
| MPKKGSRPDRPSRRCARMTSTVPALGTRSAEGSALQAVLLDMDGTLVDTEGFWWDVEAEVFAALGHPLDESWRHVVVGGPMARSAGFLIEATGADITLAELTVLLNDGFEARIGRTLPLMPGAARLLAELAAHEIPTALVSASHRRIIDRVLTSLGSQHFALTVAGDEVARTKPFPDPYLLAASGLGAEPARCAVIEDTATGVAAAEAAGCRVVAVPSVAPIAPAARRTVVTSLEEVDLPFLRGLMTEMR | failed |
| MPKKVVPEEARRRRRPTRQGAVLSEGLIVRTALRMLREHGTGGLTARRLGAALGADPSTLYRYFAGMDDLARAVGNELMGQALDGWTAQGDWRADLRSLGLALHSSYLAHPQAAVLTASRVSGRPREIAVDEAILGLLRGAGLTDRAAVRFYHAFIDLALAFAALDAGSLALPEEARRSDEDMWGTTYARLPAETHPNIAATAERLAARMPHSAYPVVLDTLLDGIAAELTGTAPEM | not failed |
| MPKPLRCITIAFTDLPNEYKIVLGYLTYHSGRLFNQALYSIKTKQAKVNTYDLYNKLKDNSLHLKNLQSRCAQIVLDELVRAFKNWFEFLHNPEKFKGQEVKPPKFRPKNKPHRTITYDQTGFKVVGTKIRLSLSKALRQWLKEKHGIELKYLWLDTGLELDERLIKNIQIVPKANAKEFELHIIYEKPQNGEKLLKQDKVMVLDPNSSNFFAIVIEGIPQPYIIDGNGLKSLLRKYLKKIASLQSRLEGAKKKGFLTHFLEERISRLWLKVKRLLKHYAHTISNLILELALKYGVRKIYIGDAARNKNKESKLSSVADQIWSLLPHGKVKEYLEYKAKEYGIEVEYISEAYTSGVDSSVEGAVNKETYTPEARVKRGLFRTRLLGFLNADVNACRNLLKKLGKFDLISGILRPIRLRVFFKLRESSSAIPLYGGIGRSRGGVNLPVVVRHSKEGVNPPEAPHL | failed |
| MPKSADQGGSPASASHEALRHILDAGASMGGLQGLDEAQQQALYAIGHGAYEQGRYADALKMFCLLVACDPLEARYLLALGAAAQELGLYEHALQQYAAAAALQLDSPRPLLHGAECLYALGRRRDALDTLDMVLELCGSPERAALRERAELLRRSYARAD | failed |
| MPKVSVVIPAYNAMPYLPETLESVLRQTYHDFEVVVVNDGSSDNTEEWVSQILDPRLKLISQANQGLAGARNTGIVNASGEYIAFLDADDIWEPTKLAKQVSVLDENPTVGLVYTWVAYIDEQGKSTGKIFKNQVEGYVWPQLTEHNIVECGSVALVRRVCFEKMGLFDRNLGSYVEDWDMWLRIATSYDFKVVKEALVYYRQRSNSASKNWEAMAHSFAIVIEKAFATASQDLQVLKNKSYGFTYLCLAWKPLQSFQKDYQKSREFCQQAVAYYPSLRFSQEYIRLSIAINLMRWFGADGYSKLLPLFHTMRRVKLALQK | failed |
